This note sets out measurements from patent US20150128304A1 (UNIVERSITY OF TOKYO, published 2015).

For this assay, the target named is T1, DREB2A full-length fused to a YFP fragment (BiFC construct in pBI221) (Arabidopsis thaliana, UniProt O82132 1-335).
T1 construct: domain: full-length; Transiently expressed in Arabidopsis protoplasts, MG132 added to stabilise DREB2A; not shown: N-terminal or C-terminal half of YFP
The assay can be described thus: BiFC (split YFP), transient expression in Arabidopsis protoplasts. The procedure:
Transient expression analysis using protoplasts from Arabidopsis thaliana mesophyll cells was conducted in accordance with the method of Yoo et al. [Yoo et al., Nat. Protoc., Vol. 2, pp. 1565-1572 ([…])]. To offer a brief explanation, the gene was introduced into the protoplast; after standing for 14 hours, MG132, a proteasome inhibitor, was added to make a final concentration of 50 μM to stabilize the DREB2A in the plant. After standing for another 4 hours, the YFP fluorescence was examined.
Specifically, two plasmids containing DREB2A and Arabidopsis thaliana NF-YC10 were produced by amplifying full-length cDNA of DREB2A and full-length cDNA of Arabidopsis thaliana NF-YC10 by PCR and attaching each to either pBI221 [Qin et al., Plant Cell, Vol. 20, pp. 1693-1707 (2008)] which is an expression vector containing cDNA encoding the N terminal side or C terminal side of YFP, and a transient expression analysis study of both plasmids was conducted. Furthermore, one transferred from Feng Qin Ph.D. (Japan International Research Center for Agricultural Sciences, Japan) was used as the DREB2A full-length cDNA-ligated pBI221 plasmid. Full-length cDNA of Arabidopsis thaliana NF-YC10 was produced by amplification by PCR using the following primer pair and introduction at the XbaI/ClaI site of the above expression vector.

T1 sequence (O82132 whole entry, the tested form may be a part): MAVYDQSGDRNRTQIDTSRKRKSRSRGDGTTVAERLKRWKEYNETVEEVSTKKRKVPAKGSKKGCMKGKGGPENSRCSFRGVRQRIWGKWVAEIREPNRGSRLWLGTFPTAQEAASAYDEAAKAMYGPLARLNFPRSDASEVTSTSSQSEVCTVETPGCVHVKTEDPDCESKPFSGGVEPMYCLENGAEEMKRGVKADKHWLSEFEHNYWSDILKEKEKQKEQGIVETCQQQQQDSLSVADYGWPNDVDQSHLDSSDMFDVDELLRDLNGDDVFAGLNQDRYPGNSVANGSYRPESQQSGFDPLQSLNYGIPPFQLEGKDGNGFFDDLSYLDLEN

B1: Arabidopsis thaliana NF-YC10 full-length fused to a YFP fragment (BiFC construct in pBI221) (other)
chain: MVSSKKPKEKKARSDVVVNKASGRSKRSSGSRTKKTSNKVNIVKKKPEIYEISESSSSDSVEEAIRGDEAKKSNGVVSKRGNGKSVGIPTKTSKNREEDDGGAEDAKIKFPMNRIRRIMRSDNSAPQIMQDAVFLVNKATEMFIERFSEEAYDSSVKDKKKFIHYKHLSSVVSNDQRYEFLADSVPEKLKAEAALEEWERGMTDAG
notes: Transiently expressed in Arabidopsis thaliana mesophyll protoplasts; not shown: N-terminal or C-terminal half of YFP
Turning to B1, the binding result is “binds”.
